T1: recombinant human ADAMTS5 (R&D Systems cat #2198-AD) (human, UniProt Q9UNA0 262-622, limits assumed)
T1 sequence: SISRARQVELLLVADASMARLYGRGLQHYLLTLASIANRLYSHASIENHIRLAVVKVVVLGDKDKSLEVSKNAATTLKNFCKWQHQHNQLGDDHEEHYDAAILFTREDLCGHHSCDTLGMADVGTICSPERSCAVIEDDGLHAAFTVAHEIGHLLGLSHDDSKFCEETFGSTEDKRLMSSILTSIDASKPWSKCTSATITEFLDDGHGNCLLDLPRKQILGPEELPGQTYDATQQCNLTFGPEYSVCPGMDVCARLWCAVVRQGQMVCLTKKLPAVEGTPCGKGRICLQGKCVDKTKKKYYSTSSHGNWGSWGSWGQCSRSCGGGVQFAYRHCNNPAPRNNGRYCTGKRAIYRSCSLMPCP

T2: mouse recombinant ADAMTS5 (mouse, UniProt Q9R001 262-622, limits assumed)
T2 construct: in house, HEK293, His tag in the entry
T2 sequence: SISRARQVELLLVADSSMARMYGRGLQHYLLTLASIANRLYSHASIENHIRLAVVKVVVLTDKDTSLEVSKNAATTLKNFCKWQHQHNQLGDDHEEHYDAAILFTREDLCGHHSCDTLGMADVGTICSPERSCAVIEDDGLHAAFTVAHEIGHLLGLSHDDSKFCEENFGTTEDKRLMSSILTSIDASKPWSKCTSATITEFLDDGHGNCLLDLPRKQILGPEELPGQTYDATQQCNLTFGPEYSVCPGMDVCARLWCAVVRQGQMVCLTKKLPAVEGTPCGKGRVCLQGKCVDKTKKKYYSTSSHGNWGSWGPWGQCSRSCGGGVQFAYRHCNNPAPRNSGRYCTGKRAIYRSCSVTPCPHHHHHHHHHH

T3: guinea pig recombinant ADAMTS5 (guinea pig)
T3 chain: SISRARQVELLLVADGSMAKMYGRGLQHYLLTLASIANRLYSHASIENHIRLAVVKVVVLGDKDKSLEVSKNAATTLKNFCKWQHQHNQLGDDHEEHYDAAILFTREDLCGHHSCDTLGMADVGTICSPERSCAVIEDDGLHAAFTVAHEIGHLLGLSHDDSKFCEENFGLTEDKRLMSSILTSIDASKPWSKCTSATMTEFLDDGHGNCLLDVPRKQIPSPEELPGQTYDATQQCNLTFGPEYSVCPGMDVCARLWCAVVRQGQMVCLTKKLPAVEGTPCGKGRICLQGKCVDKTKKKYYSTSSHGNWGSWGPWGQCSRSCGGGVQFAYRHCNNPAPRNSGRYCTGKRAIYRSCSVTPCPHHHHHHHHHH

T4: cynomolgus monkey recombinant ADAMTS5 (cynomolgus monkey, UniProt Q9UNA0 262-622 (human entry), limits assumed)
T4 chain: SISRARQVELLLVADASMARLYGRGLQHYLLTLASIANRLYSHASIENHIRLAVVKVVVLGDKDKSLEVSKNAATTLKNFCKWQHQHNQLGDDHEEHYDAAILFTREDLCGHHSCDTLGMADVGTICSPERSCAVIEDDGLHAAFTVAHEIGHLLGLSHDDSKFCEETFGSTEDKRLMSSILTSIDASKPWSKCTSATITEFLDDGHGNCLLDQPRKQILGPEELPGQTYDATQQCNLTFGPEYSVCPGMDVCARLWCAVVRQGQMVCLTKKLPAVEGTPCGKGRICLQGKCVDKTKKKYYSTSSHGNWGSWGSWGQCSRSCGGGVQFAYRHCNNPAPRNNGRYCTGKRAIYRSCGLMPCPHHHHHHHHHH


How the values were obtained:
[1] = target: T1, recombinant human ADAMTS5 (R&D Systems …); experiment: cell-based or functional assay
[2] = target: T2, mouse recombinant ADAMTS5; experiment: SPR off-rate, Biacore T100, ADAMTS5 immobilised, experiment 2
Description: (§1) Species cross-reactivity was initially evaluated via SPR-based off-rate analysis on a Biacore T100 instrument. Nanobodies were tested for binding to human, cynomolgus monkey (“cyno”), guinea pig, mouse, and bovine ADAMTS5. To this end, recombinant ADAMTS5 was immobilized onto a CM5 chip via amine coupling using EDC and NHS. Purified Nanobodies were injected for 2 minutes at a concentration of 100 nM and allowed to dissociate for 15 min at a flow rate of 45 ul/min. Off-rate for each individual Nanobody was determined by fitting a 1:1 interaction model (Langmuir model) onto the individual dissociation curves using the BIA Evaluation software. As a reference, off-rates on human ADAMTS5 were determined in each experiment.

[3] = target: T1, recombinant human ADAMTS5 (R&D Systems …); experiment: as above
Description: as §1

[4] = target: T1, recombinant human ADAMTS5 (R&D Systems …); experiment: cell-based or functional assay; remark: listed apart in the source
[5] = target: T3, guinea pig recombinant ADAMTS5; experiment: cell-based or functional assay
[6] = target: T4, cynomolgus monkey recombinant ADAMTS5; experiment: cell-based or functional assay
[7] = target: T1, recombinant human ADAMTS5 (R&D Systems …); experiment: SPR off-rate, Biacore T100, ADAMTS5 immobilised, experiment 3
Description: as §1

[8] = target: T1, recombinant human ADAMTS5 (R&D Systems …); experiment: cell-based or functional assay; remark: listed apart in the source
[9] = target: T1, recombinant human ADAMTS5 (R&D Systems …); experiment: SPR off-rate, Biacore T100, ADAMTS5 immobilised, experiment 1
Description: as §1

[10] = target: T3, guinea pig recombinant ADAMTS5; experiment: as above
Description: as §1

[11] = target: T4, cynomolgus monkey recombinant ADAMTS5; experiment: as above
Description: as §1

[12] = target: T1, recombinant human ADAMTS5 (R&D Systems …); experiment: binding ELISA, periplasmic extract on coated human ADAMTS5
Description: In a first step, periplasmic extracts were tested for binding to recombinant human ADAMTS5 by binding ELISA. In brief, recombinant human ADAMTS5 (R&D Systems, Minneapolis, US; cat #2198-AD) at a concentration of 1 μg/ml was coated on 384-well MaxiSorp plates (Nunc, Wiesbaden, Germany). Wells were blocked with a casein solution (1%). After addition of a 10-fold dilution of the periplasmic extracts, Nanobody binding was detected using a mouse anti-Flag-HRP conjugate (Sigma, St. Louis, US) and a subsequent enzymatic reaction in the presence of the substrate esTMB (3,3′,5,5′-tetramentylbenzidine) (SDT, Brussels, Belgium). Clones showing ELISA signals higher than the sum of the average signal of the irrelevant Nanobody controls and 3 times the standard deviation of the irrelevant Nanobody controls were considered to encode positive human ADAMTS5 binding Nanobodies.

[13] = target: T1, recombinant human ADAMTS5 (R&D Systems …); experiment: cell-based or functional assay; remark: listed apart in the source
[14] = target: T1, recombinant human ADAMTS5 (R&D Systems …); experiment: cell-based or functional assay; remark: listed apart in the source

Binder | Human AlphaLISA % inhibition [1] [%] | Human AlphaLISA IC50 [1] [pM] | koff [2] [s⁻¹] | koff [3] [s⁻¹] | AlphaLISA potency IC50, Human [4] [pM] | AlphaLISA potency IC50, Guinea pig [5] [pM] | AlphaLISA potency IC50, Cyno [6] [pM] | koff [7] [s⁻¹] | FRET assay % inh, periplasmic extract [8] [%] | FRET assay vi (U/min), periplasmic extract [8] [U/min] | koff [9] [s⁻¹] | koff [10] [s⁻¹] | koff [11] [s⁻¹] | binding ELISA (OD 450 nm) [12] [OD 450 nm] | AlphaLISA IC50, - HSA [13] [pM] | AlphaLISA IC50, Exp 1 [14] [pM] | AlphaLISA IC50, Exp 2 [14] [pM] | AlphaLISA IC50, Exp 3 [14] [pM] | AlphaLISA IC50, Exp 4 [14] [pM]
Nanobody 3D01 (VHH, tagged as tested (anti-Flag detection, IMAC); also called 03D01) VHH: EVQLVESGGGLVQAGGSLRLSCAPSGFTFSPYYMGWFRQAPGKERDFVAAISRSRGTTYYLDSTEGRFTISRDNANDTVYLQMNSLNPEDTAVYYCAAGRSPGDPSRTYLYDYWGQGTLVTVSS | 96 | 390 | 0.00064 | 0.00032 | 390 | 350 | 220 | 0.00046 | 111 | -2 | 0.00023 | 0.00027 | 0.0002 | 2.57 |  |  |  |  | 
Nanobody 3B02 (VHH, tagged as tested (anti-Flag detection, IMAC); also called 03B02; 3B2) VHH: EVQLVESGGGFVQAGGSLRLSCVASRRTISSGTMGWFRQAPGKEREFVAAIRWSSGMPYYLDSVMDRFTISRDNAKNTVSLQMNSLQPEDTAVYYCAADRSAFRDPSFDVNYEYWGRGTLVTVSS | 100 | 300 | 0.002 | 0.00085 | 300 | 460 | 190 | 0.0012 | 105 | -1 | 0.00073 | 0.001 | 0.00074 | 2.57 | 300 |  |  |  | 
Nanobody 2D07 (VHH, tagged as tested (anti-Flag detection, IMAC); also called 02D07; 2D7) VHH: EVQLVESGGGLVQAGGSLRLSCSFSGPGRTFARYAMGWFRQAPGKNRDFITGISGSGDSTYYVYPMKDRFTISRDNAKNMVYLQMNALKPEDTAVYYCAADREINRIANDKELDFWGQGTLVTVSS | 100 | 190 | 0.0018 | 0.00094 | 190 | 360 | 150 | 0.001 | 104 | -1 | 0.0011 | 0.0011 | 0.00098 | 1.55 | 190 |  |  |  | 

Next, values leading:

Human AlphaLISA % inhibition [1] [%] | Human AlphaLISA IC50 [1] [pM] | koff [2] [s⁻¹] | koff [3] [s⁻¹] | AlphaLISA potency IC50, Human [4] [pM] | AlphaLISA potency IC50, Guinea pig [5] [pM] | AlphaLISA potency IC50, Cyno [6] [pM] | koff [7] [s⁻¹] | FRET assay % inh, periplasmic extract [8] [%] | FRET assay vi (U/min), periplasmic extract [8] [U/min] | koff [9] [s⁻¹] | koff [10] [s⁻¹] | koff [11] [s⁻¹] | binding ELISA (OD 450 nm) [12] [OD 450 nm] | AlphaLISA IC50, - HSA [13] [pM] | AlphaLISA IC50, Exp 1 [14] [pM] | AlphaLISA IC50, Exp 2 [14] [pM] | AlphaLISA IC50, Exp 3 [14] [pM] | AlphaLISA IC50, Exp 4 [14] [pM] | Binder
100 | 110 | 0.0037 | 0.0012 | 110 | 130 | 120 | 0.0014 | 110 | -2 | 0.00098 | 0.001 | 0.00092 |  | 110 |  |  |  |  | Nanobody 9D03 (VHH, tagged as tested (anti-Flag detection, IMAC); also called 09D03; 9D3) VHH: EVQLVESGGGLVQSGGSLRLSCAASGSAVSVNAMAWYRQAPGKQRDFVAGISRSAGRTYYTDSVKDRFTIARDSAKNTVYLQMNRLKPEDTAVYYCAADLDPNRIFSRDEAAYWGQGTLVTVSS
100 | 100 | 0.00053 | 0.00027 | 100 | 350 | 120 | 0.00038 | 106 | -1 | 0.00017 | 0.00017 | 0.00014 |  |  |  |  |  |  | Nanobody 11B06 (VHH, tagged as tested (anti-Flag detection, IMAC)) VHH: EVQLVESGGGLVQAGGSLRLSCAASGLTFRRNAMGWFRQAPGKERELLAGINWSGGTTYYVDSVKGRFTISRDNAKNTVDLQMISPKPEDTAVYYCAADGDIGTLVNDENPRYWGQGTLVTVSS
 |  |  |  |  |  |  |  |  |  |  |  |  |  |  | 200 | 270 | 190 | 440 | monovalent Nanobody 2F3^SO (2F3*) (VHH) VHH: DVQLVESGGGVVQPGGSLRLSCAASGRTVSSYAMGWFRQAPGKEREFVAGISRSAERTYYVDSLKGRFTISRDNSKNTVYLQMNSLRPEDTALYYCAADLDPNRIFSREEYAYWGQGTLVTVSS
